The record followed here is paper PMC11813103, “Interaction of cardiac leiomodin with the native cardiac thin filament” (PLOS Biology, 2025).

The test has as its target G-actin (UniProt P68135 1-377). The test is described as follows: native gel or EMSA; 9% polyacrylamide, 10% glycerol, no SDS; fragments mixed with 5 μM G-actin at 1:2, 1:1, 1.5:1 and 2:1 molar ratios (Lmod2[518–543] at 2:1 only); densitometry of the actin band. Conditions: both partners purified. A general note: A gel shift assay detects complexes by their altered migration in electrophoresis.

B1: Lmod2[387–426] (peptide)
peptide: WQRGTPGSSPYASPRQSPWSSPKVSKKVHTGRSRPPSPVA
notes: also called C-terminal Lmod2 fragment between the LRR domain and the polyP region; source: synthetic peptide (Tufts University Core Facility)
With B1, the “percent of the actin in complex at a 2:1 fragment to actin molar ratio” value (“percent of the actin … to actin molar ratio” for short) is approximately 70%.

B2: Lmod2[518–543] (peptide)
peptide: STPQRSVHENLMEAIRGSSIRQLRRV
notes: also called Lmod2 fragment containing the WH2 domain; source: synthetic peptide (Tufts University Core Facility)
Consider B2, for which the “percent of the actin … to actin molar ratio” value is approximately 90%.

B3: Lmod2[451–492] (peptide)
peptide: PLPEKKLITRNIAEVIKQQESAQRALQNGQRKKKGKKVKKQP
notes: also called C-terminal Lmod2 fragment after the polyP region; source: synthetic peptide (Tufts University Core Facility)
For B3, the “percent of the actin … to actin molar ratio” value is approximately 60%.
